The target in the test is Recombinant human IGF-II R (CI-MPR) (Homo sapiens, UniProt P11717). The test can be described thus: SPR binding to immobilized CI-MPR. The conditions noted are these: 25° C., three independent experiments. On the technique in general: SPR reads the build-up and loss of mass on a sensor chip optically.
Recombinant human IGF-II R (CI-MPR), sequence (P11717 41-2491): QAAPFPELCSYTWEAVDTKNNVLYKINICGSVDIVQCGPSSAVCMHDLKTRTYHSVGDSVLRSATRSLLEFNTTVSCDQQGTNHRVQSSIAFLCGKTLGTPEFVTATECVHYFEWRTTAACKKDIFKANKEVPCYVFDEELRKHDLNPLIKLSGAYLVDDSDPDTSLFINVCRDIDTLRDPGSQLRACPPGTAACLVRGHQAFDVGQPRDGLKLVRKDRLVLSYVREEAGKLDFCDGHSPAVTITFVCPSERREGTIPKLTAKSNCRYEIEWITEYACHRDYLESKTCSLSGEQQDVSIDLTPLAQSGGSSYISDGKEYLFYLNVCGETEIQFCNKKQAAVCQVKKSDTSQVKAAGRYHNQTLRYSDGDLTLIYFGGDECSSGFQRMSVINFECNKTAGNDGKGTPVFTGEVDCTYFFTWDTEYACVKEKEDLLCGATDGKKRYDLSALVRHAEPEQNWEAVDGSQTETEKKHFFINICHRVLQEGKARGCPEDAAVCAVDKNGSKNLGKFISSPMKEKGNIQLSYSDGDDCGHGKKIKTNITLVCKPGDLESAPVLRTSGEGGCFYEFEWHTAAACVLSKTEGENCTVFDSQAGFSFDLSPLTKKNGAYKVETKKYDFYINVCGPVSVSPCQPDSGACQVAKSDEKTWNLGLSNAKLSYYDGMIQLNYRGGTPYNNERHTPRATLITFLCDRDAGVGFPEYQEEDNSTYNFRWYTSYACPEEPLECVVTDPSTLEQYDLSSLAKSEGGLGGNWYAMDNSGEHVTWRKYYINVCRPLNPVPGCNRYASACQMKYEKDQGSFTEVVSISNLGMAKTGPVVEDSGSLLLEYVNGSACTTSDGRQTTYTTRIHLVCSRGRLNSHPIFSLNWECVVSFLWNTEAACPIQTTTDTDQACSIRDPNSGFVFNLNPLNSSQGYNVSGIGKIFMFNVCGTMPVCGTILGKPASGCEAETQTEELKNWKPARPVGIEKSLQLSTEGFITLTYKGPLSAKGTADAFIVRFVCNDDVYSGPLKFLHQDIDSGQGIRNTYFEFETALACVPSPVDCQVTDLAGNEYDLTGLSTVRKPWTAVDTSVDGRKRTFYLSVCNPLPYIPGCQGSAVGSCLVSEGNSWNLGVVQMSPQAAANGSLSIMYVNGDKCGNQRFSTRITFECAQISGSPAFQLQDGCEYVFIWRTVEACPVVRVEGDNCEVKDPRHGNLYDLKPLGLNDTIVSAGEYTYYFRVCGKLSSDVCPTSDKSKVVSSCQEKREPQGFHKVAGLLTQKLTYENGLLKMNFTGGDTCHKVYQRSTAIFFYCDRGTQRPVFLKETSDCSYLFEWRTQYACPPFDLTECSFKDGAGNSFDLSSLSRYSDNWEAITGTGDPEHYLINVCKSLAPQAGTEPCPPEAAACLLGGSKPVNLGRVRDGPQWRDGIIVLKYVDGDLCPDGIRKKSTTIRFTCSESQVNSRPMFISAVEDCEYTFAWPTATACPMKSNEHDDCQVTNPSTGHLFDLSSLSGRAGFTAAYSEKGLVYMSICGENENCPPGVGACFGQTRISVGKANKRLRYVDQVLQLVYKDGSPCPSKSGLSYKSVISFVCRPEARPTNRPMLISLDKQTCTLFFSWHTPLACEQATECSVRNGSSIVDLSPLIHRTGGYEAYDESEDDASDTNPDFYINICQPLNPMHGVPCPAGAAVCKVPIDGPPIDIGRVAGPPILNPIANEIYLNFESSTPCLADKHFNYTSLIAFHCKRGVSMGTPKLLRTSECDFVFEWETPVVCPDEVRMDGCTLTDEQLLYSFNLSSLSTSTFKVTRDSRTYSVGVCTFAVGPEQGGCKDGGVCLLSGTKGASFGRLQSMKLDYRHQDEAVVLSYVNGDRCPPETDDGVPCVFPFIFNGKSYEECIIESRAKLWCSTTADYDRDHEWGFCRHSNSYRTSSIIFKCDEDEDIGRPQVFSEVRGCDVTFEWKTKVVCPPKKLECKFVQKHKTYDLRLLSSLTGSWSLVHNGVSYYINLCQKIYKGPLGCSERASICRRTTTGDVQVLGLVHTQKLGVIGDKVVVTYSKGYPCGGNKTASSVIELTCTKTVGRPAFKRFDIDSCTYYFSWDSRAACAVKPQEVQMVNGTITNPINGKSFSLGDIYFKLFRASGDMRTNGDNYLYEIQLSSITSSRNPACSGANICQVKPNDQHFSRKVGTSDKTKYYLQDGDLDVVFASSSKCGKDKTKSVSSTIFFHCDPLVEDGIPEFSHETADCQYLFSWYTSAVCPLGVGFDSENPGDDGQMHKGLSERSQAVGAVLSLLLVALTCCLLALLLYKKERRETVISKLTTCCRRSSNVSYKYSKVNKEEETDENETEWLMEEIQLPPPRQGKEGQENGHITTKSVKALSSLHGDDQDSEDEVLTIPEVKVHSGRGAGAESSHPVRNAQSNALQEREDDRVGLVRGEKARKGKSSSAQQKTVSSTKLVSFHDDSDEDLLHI

Description: Surface Plasmon Resonance (SPR) Measurements. SPR measurements were performed on a Biacore T200 instrument (GE Healthcare). Recombinant human IGF-II R (CI-MPR) was purchased from R&D Systems. Approximately 7000 resonance units (RU) of CI-MPR was immobilized on a CM5 sensor chip in a sodium acetate buffer (25 μg/mL, pH 4.0) at 25° C., using the amine coupling kit provided by the manufacturer. Mannose 6-phosphates containing glycopeptides or glycoproteins were determined at 25° C. under a flow rate of 10 μL/min. HBS-P+ buffer (10 mM HEPES, 150 mM NaCl, 0.05% surfactant P20, pH 7.4) was used as sample buffer and running buffer. Association was measured for 3 min and dissociation for 10 min at the same flow rate (10 μL/min). […] Synthetic glycopeptide and glycoprotein analytes flowed over an immobilized chip with 2-fold serial dilution of the highest concentration of 4 μM (for glycopeptides) or 1 μM (for RNase B) or 250 nM (for rhGAA). Kinetic analyses were performed by global fitting of the binding data to a 1:1 Langmuir binding model using BIAcore T200 evaluation software.

B1: Glycoprotein 68: phosphorylated glycoprotein from GlcNAc-RNase B and oxazoline 8 under wild-type Endo-A catalysis (protein)
chain: KETAAAKFERQHMDSSTSAASSSNYCNQMMKSRNLTKDRCKPVNTFVHESLADVQAVCSQKNVACKNGQTNCYQSYSTMSITDCRETGSSKYPNCAYKTTQANKHIIVACEGNPYVPVHFDASV
modifications: Asn-34 carries GlcNAc extended with M6P tetrasaccharide oxazoline 8 (Man6P-α1,2-Man-α1,3-Man-β1,4-GlcNAc)
For the molecule B1, the Kd turned out to be 15.8 nM.

What is called Kd is the equilibrium constant for the complex coming apart.

These data come from patent publication US20240218342A1, “SITE-SPECIFIC GLYCAN REMODELING OF LYSOSOMAL ENZYMES AND APPLICATIONS THEREOF” (priority 2021, published 2024).
